This is an account of results in PMC5593896, “A signal-on built in-marker electrochemical aptasensor for human prostate-specific antigen based on a hairbrush-like gold nanostructure”.

The target in this data set is prostate-specific antigen (PSA) (human, UniProt P07288 25-261). Put plainly: electrochemical aptasensor (signal-on, MB marker); immobilized aptamer; linear range 0.125-128 ng/mL, LOD 50 pg/mL (40 in Table 1); no Kd in material; 20 mM Tris-HCl pH 7.4, 1 h at 37 °C, then rinsed with Tris; salt not stated. To be noted: protein: commercial; label: methylene blue (3', redox marker).
Chain of prostate-specific antigen (PSA) (P07288 25-261): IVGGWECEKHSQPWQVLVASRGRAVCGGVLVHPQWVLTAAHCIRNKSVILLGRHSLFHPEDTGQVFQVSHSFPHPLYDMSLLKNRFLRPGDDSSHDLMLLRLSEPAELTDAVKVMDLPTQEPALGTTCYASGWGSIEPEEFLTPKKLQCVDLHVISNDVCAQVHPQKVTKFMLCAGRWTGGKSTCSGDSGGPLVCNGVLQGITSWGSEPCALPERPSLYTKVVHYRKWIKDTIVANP

For the molecule TTTTTAATTAAAGCTCGCCATCAAATAGCTTT (ssDNA, 5' SH-(CH2)6; 3' methylene blue) [PSA aptamer (SH/MB)], the binding result was “binds”.
